Laboratory results as given in patent publication US20070099248A1.

Molecular target: biotinylated AP-neuroligin-1 on rat hippocampal neurons (mouse neuroligin-1 with acceptor peptide at the N-terminus, biotinylated with biotin ligase) (mouse) (UniProt Q99K10)
Assay: cell-based or functional assay

Chain of biotinylated AP-neuroligin-1 on rat hippocampal neurons (mouse neuroligin-1 with acceptor peptide at the N-terminus, biotinylated with biotin ligase) (mouse) (Q99K10 46-843, form in doubt): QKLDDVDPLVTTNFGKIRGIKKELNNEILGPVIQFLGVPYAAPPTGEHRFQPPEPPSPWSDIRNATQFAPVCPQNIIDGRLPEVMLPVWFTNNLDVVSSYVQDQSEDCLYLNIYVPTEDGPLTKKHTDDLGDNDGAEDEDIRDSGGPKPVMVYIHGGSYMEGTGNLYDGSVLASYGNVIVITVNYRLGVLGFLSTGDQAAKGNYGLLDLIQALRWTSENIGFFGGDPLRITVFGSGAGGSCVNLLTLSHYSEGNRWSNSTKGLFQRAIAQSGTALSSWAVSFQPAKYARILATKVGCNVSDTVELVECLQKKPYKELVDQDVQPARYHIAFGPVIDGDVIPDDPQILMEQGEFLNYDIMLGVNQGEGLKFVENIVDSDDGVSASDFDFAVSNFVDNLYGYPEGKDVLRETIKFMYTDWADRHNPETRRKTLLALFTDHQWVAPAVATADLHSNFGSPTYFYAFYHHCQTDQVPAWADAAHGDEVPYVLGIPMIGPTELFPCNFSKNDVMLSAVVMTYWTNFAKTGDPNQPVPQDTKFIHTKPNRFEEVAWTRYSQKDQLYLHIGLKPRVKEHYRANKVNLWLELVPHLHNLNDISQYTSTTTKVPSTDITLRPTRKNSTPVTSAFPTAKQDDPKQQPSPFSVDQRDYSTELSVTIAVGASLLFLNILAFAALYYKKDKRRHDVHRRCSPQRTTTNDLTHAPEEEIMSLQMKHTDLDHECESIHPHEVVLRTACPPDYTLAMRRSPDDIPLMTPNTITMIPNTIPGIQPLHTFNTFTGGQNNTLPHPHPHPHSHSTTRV

clusters/µm of dendrite after two hour incubation [clusters/µm]	Substance
0.266	Alexa Fluor 568-conjugated wild-type streptavidin (Molecular Probes) (from UniProt P22629 37-163)
0.087	monovalent streptavidin A1D3 (one Alive subunit with His6 tag, three Dead subunits), Alexa Fluor 568-conjugated (designed binder)
